The values that follow come from article doi:10.1101/2022.02.08.479556.

The term Kd denotes a measure of binding affinity in units of concentration. Low values mean higher affinity, high ones lower affinity.

The test concerns the target SARS-CoV-2 nucleocapsid protein N:G215C mutant (SARS-CoV-2) (UniProt P0DTC9). Nature of the test: AUC.

“SARS-CoV-2 nucleocapsid protein N:G215C mutant (from UniProt P0DTC9 1-419) (natural protein)”: the Kd amounted to 3.3 µM.
